{"source": "paper PMC2840706", "key": {"[1]": {"molecular_target": "HIV-1 CA A14C/E45C/W184A/M185A (HIV-1 (NL4-3))", "assay": "cross-linking"}, "[2]": {"molecular_target": "HIV-1 CA A14C/E45C/W184A/M185A (HIV-1 (NL4-3))", "assay": "SEC"}}, "data": [{"substance": "HIV-1 CA A14C/E45C/W184A/M185A (natural protein)", "values": [{"measurement": "stoichiometry N", "setting": "[1]", "value": 6}, {"measurement": "stoichiometry N", "setting": "[2]", "value": 6}]}]}
